{"source": "paper PMC5599240", "binders": {"B1": {"name": "TARP γ2 (Stargazin), mouse, wild type (natural protein)", "chain": "MGLFDRGVQMLLTTVGAFAAFSLMTIAVGTDYWLYSRGVCKTKSVSENETSKKNEEVMTHSGLWRTCCLEGNFKGLCKQIDHFPEDADYEADTAEYFLRAVRASSIFPILSVILLFMGGLCIAASEFYKTRHNIILSAGIFFVSAGLSNIIGIIVYISANAGDPSKSDSKKNSYSYGWSFYFGALSFIIAEMVGVLAVHMFIDRHKQLRATARATDYLQASAITRIPSYRYRYQRRSRSSSRSTEPSHSRDASPVGVKGFNTLPSTEISMYTLSRDPLKAATTPTATYNSDRDNSFLQVHNCIQKDSKDSLHANTANRRTTPV"}}, "target": "GluA2 flip receptor, unedited at the pore site (Q-containing), wild type (UniProt P19491)", "sequence (P19491 other isoform, or with tags, fused parts or gaps)": "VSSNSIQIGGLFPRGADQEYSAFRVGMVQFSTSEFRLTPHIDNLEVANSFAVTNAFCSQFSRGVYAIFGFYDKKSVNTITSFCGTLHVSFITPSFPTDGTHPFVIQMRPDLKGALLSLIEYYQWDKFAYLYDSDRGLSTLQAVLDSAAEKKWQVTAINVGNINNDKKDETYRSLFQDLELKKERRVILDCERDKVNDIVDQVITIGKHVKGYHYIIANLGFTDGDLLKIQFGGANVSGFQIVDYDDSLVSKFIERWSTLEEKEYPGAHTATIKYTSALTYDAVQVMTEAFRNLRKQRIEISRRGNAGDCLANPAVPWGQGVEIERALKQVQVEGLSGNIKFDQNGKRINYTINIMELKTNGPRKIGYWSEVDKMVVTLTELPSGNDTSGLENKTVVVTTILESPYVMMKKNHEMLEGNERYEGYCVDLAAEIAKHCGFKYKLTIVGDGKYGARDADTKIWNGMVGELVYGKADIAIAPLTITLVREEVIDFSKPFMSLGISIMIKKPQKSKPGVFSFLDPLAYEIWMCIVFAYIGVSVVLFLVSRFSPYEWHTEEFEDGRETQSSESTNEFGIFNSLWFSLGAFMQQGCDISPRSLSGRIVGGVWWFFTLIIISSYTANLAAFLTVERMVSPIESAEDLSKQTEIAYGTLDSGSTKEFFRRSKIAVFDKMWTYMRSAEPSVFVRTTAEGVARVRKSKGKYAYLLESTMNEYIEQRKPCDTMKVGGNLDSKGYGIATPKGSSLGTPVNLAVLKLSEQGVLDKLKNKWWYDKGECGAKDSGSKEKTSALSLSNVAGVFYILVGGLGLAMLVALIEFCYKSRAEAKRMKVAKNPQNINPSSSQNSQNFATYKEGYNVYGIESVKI"}
{"binder": "B1", "values": [{"measurement": "coupling energy of a thermodynamic cycle (γ2 wild type or L2 GS with GluA2 wild type or GAG/GSG), superactivation during 7 s of 10 mM glutamate", "result": 4.5, "unit": "kJ/mol"}]}
